Results: PMC6859858

Legend:
[1] = target: T1, CPSF-160;WDR33;CPSF-30;Fip1 (human;human;human;human, UniProt Q10570;Q9C0J8;O95639;Q6UN15 1-1443;1-425;1-269;159-200, |||); test: competition fluorescence polarization
Target sequence in this assay (Q10570 whole entry, chain 1 of 3): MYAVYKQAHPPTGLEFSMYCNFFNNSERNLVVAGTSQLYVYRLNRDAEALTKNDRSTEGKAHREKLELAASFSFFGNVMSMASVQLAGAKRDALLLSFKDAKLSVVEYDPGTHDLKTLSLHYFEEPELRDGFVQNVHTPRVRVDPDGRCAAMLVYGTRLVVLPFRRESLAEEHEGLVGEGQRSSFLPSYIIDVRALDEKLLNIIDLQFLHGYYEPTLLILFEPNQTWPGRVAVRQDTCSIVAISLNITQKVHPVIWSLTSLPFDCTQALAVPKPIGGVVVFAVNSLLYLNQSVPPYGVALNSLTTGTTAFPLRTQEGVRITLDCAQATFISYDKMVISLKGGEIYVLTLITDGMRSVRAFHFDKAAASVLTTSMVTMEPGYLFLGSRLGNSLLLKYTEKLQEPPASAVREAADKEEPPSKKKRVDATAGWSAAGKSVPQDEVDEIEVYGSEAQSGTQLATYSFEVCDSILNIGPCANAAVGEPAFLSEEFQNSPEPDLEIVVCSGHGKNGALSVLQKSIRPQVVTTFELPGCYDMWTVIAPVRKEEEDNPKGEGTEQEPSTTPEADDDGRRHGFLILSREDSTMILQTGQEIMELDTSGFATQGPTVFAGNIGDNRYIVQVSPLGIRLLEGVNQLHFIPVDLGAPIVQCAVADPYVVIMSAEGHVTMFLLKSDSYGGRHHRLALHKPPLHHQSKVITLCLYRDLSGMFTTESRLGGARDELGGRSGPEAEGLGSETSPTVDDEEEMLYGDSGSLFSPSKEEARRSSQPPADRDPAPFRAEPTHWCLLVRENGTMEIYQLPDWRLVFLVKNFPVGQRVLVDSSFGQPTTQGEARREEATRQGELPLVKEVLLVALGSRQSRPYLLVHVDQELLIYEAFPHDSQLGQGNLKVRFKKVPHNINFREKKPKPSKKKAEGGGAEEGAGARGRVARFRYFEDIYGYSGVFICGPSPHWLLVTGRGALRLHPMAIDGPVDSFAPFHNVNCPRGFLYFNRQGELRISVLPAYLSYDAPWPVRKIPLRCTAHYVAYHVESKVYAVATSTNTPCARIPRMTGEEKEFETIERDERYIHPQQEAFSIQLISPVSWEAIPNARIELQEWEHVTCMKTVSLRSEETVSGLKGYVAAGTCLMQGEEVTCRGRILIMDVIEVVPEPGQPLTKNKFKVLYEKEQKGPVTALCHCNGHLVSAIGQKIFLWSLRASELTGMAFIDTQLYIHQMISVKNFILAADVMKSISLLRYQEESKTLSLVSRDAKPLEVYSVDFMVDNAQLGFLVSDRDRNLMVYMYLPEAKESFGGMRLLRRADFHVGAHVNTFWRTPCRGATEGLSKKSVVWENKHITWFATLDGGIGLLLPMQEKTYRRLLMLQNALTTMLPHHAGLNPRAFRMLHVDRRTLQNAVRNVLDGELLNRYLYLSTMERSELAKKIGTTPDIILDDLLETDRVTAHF
Target sequence in this assay (Q9C0J8 1-425, chain 2 of 3): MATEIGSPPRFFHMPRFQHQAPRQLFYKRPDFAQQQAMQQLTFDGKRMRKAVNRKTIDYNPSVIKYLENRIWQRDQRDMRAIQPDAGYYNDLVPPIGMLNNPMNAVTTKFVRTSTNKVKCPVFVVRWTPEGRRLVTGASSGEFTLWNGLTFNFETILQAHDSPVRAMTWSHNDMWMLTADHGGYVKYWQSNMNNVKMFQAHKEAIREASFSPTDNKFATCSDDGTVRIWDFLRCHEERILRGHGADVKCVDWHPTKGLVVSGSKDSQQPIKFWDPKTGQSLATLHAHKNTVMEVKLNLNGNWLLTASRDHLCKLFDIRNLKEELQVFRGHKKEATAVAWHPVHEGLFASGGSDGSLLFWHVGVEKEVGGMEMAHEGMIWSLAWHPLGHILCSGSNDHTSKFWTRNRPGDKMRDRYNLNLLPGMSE
Target sequence in this assay (O95639 whole entry, chain 3 of 3): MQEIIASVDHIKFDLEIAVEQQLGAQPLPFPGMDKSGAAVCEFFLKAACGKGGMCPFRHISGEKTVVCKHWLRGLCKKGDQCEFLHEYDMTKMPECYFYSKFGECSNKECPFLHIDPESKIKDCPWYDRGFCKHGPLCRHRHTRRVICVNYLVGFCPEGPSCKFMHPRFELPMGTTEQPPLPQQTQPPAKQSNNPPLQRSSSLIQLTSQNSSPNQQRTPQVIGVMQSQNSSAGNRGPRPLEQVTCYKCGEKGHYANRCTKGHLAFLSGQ

[2] = target: T1, CPSF-160;WDR33;CPSF-30;Fip1; test: fluorescence polarization
Target sequence in this assay (Q10570 whole entry, chain 1 of 3): as the sequence (Q10570 whole entry, chain 1 of 3) above
Target sequence in this assay (Q9C0J8 1-425, chain 2 of 3): as the sequence (Q9C0J8 1-425, chain 2 of 3) above
Target sequence in this assay (O95639 whole entry, chain 3 of 3): as the sequence (O95639 whole entry, chain 3 of 3) above

[3] = target: T1, CPSF-160;WDR33;CPSF-30;Fip1; test: fluorescence polarization; remark: listed apart in the source
Target sequence in this assay (Q10570 whole entry, chain 1 of 4, one chain of several): as the sequence (Q10570 whole entry, chain 1 of 3) above
Target sequence in this assay (Q9C0J8 1-425, chain 2 of 4, one chain of several): as the sequence (Q9C0J8 1-425, chain 2 of 3) above
Target sequence in this assay (O95639 whole entry, chain 3 of 4, one chain of several): as the sequence (O95639 whole entry, chain 3 of 3) above

[4] = target: T1, CPSF-160;WDR33;CPSF-30;Fip1; test: fluorescence polarization; remark: listed apart in the source
Target sequence in this assay (Q10570 whole entry, chain 1 of 4, one chain of several): as the sequence (Q10570 whole entry, chain 1 of 3) above
Target sequence in this assay (Q9C0J8 1-425, chain 2 of 4, one chain of several): as the sequence (Q9C0J8 1-425, chain 2 of 3) above
Target sequence in this assay (O95639 whole entry, chain 3 of 4, one chain of several): as the sequence (O95639 whole entry, chain 3 of 3) above

CPSF-160;WDR33;CPSF-30 = CPSF-160;WDR33;CPSF-30 (human;human;human, UniProt Q10570;Q9C0J8;O95639 1-1443;1-425;1-269, ||); test: fluorescence polarization
[5] = target: CPSF-160;WDR33;CPSF-30 F84A;Fip1 (human;human;human;human, UniProt Q10570;Q9C0J8;O95639;Q6UN15 1-1443;1-425;1-269;159-200, ||F84A|); test: fluorescence polarization
[6] = target: CPSF-160;WDR33;CPSF-30 F112A;Fip1 (human;human;human;human, UniProt Q10570;Q9C0J8;O95639;Q6UN15 1-1443;1-425;1-269;159-200, ||F112A|); test: fluorescence polarization
[7] = target: CPSF-160;WDR33;CPSF-30 R73A;Fip1 (human;human;human;human, UniProt Q10570;Q9C0J8;O95639;Q6UN15 1-1443;1-425;1-269;159-200, ||R73A|); test: fluorescence polarization
[8] = target: CPSF-160;WDR33;CPSF-30 H70A;Fip1 (human;human;human;human, UniProt Q10570;Q9C0J8;O95639;Q6UN15 1-1443;1-425;1-269;159-200, ||H70A|); test: fluorescence polarization
Fip1 = target: T2, Fip1 (human, UniProt Q6UN15 159-200); test: fluorescence polarization
T2 chain: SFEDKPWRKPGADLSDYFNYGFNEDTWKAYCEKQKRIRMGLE

[9] = target: T1, CPSF-160;WDR33;CPSF-30;Fip1; test: competition fluorescence polarization; remark: listed apart in the source
Target sequence in this assay (Q10570 whole entry, chain 1 of 4, one chain of several): as the sequence (Q10570 whole entry, chain 1 of 3) above
Target sequence in this assay (Q9C0J8 1-425, chain 2 of 4, one chain of several): as the sequence (Q9C0J8 1-425, chain 2 of 3) above
Target sequence in this assay (O95639 whole entry, chain 3 of 4, one chain of several): as the sequence (O95639 whole entry, chain 3 of 3) above

Binder: AAUAAAC (ssRNA) [7-mer AAUAAAC, unlabeled]
- binding signal [1]: 35 fold higher Kd than 11-mer

Binder: AACCUCCAAUAAACAAC (ssRNA) [17-mer AAUAAA PAS]
- binding signal [2]: 3 fold higher Kd than maximal binding
- Kd [3]: 0.28 ± 0.07 nM
- Kd [4]: 0.19 ± 0.03 nM
- Kd (CPSF-160;WDR33;CPSF-30): 0.25 ± 0.05 nM
- binding signal [5]: 8 fold higher Kd than wild type
- binding signal [6]: 140 fold higher Kd than wild type
- binding signal [7]: 17 fold higher Kd than wild type
- binding signal [8]: 90 fold higher Kd than wild type
- binding result (Fip1): no binding

Binder: CAAUAAACAAC (ssRNA) [11-mer AAUAAA PAS, FAM]
- Kd [3]: 0.32 ± 0.04 nM

Binder: CAAUAAAC (ssRNA) [8-mer AAUAAA, unlabeled]
- Kd [9]: 57 ± 18 nM

Binder: AAUAAA (ssRNA, 3' phosphate linking the FAM) [6-mer AAUAAA, FAM]
- Kd [3]: 8.05 ± 0.45 nM
